Measured values as given in US20240035012A1.
pIC50, pKd: −log10 of the molar value. Read-outs that look alike come from different tables or passages of the source.

How the values were obtained:
[1] = biological target: prefusion stabilized trimeric SARS-CoV-2 spike protein ectodomain (SARS-CoV-2) (UniProt P0DTC2)
[2] = biological target: prefusion stabilized trimeric SARS-CoV-2 spike protein ectodomain (SARS-CoV-2) (UniProt P0DTC2); remark: listed apart in the source
[3] = biological target: prefusion stabilized trimeric SARS-CoV-2 spike protein ectodomain (SARS-CoV-2) (UniProt P0DTC2); remark: listed apart in the source
[4] = biological target: prefusion stabilized trimeric SARS-CoV-2 spike protein ectodomain (SARS-CoV-2) (UniProt P0DTC2); test: ELISA, S-ECD coated on plate, ACE2 protein titrated, anti-GFP detection
[5] = biological target: prefusion stabilized trimeric SARS-CoV-2 spike protein ectodomain (SARS-CoV-2) (UniProt P0DTC2); remark: listed apart in the source

Substance “ACE2-flexible-3HB (from UniProt Q9BYF1 18-615) (receptor)” has a pKd [1] of 8.36, a pIC50 [2] of 10.22 and a pKd [3] of 8.88.
Work on “ACE2-flexible-foldon (from UniProt Q9BYF1 18-615) (receptor)” yielded a pKd [1] of 9.47, a pIC50 [2] of 10.15 and a pKd [3] of 9.28.
“ACE2-rigid-3HB (from UniProt Q9BYF1 18-615) (receptor)” was tested, and the pIC50 [4] was 10.52 and the pKd [3] was > 12.00.
“ACE2-rigid-foldon (from UniProt Q9BYF1 18-615) (receptor)” was tested, and the pIC50 [4] was 10.52 and the pKd [3] was > 12.00.
With “ACE2-short-foldon (from UniProt Q9BYF1 18-615) (receptor)” the pIC50 [5] was 10.30 and the pKd [3] was 9.28.
Work on “Monomeric ACE2 (ACE2 (18-615)-(GGGGS)5-HRV3C-eGFP-His8) (from UniProt Q9BYF1 18-615) (receptor)” yielded a pKd [1] of 7.47, a pIC50 [4] of 7.57 and a pIC50 [2] of 7.58.
